Molecular target: T1, papain (UniProt P00784 134-345)
T1 sequence (looked up): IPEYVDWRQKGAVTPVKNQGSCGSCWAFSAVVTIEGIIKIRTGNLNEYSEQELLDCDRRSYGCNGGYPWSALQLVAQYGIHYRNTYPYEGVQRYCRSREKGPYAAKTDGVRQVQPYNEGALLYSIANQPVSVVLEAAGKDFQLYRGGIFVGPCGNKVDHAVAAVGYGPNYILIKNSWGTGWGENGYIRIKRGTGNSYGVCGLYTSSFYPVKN
Assay: reversible inhibition of papain activity, Ki corrected for substrate competition (Km=60 µM)

B1: human Cystatin F (recombinant, produced in a baculovirus system) (other)
chain: GPSPDTCSQDLNSRVKPGFPKTIKTNDPGVLQAARYSVEKFNNCTNDMFLFKESRITRALVQIVKGLKYMLEVEIGRTTCKKNQHLRLDDCDFQTNHTLKQTLSCYSEVWVVPWLQHFEVPVLRCH
notes: 20-145 is used here; also called recombinant Cystatin F
Ki: 1.05 nM

— patent US20030114646A1 (Human Genome Sciences, published 2003)
